One assay addresses T1, Fc tagged human PDL1 (human, UniProt Q9NZQ7 19-239).
T1 construct: Bought (Sino Biological, cat. 10084-H02H); captured on the SPR chip; also called PDL1-Fc chimeric protein
Kind of assay: SPR. The essentials: (§1)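 Kinetics were fitted with a one-to-one Langmuir model to give apparent ka, kd and KD. Binders at 0.12-90 nM (three-fold series) flowed 3 min, with 10 min dissociation and 3 M MgCl₂ regeneration, on a Biacore T200.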
(In general: SPR reads the build-up and loss of mass on a sensor chip optically.)

For assay [1], the target named is T2, cynomolgus PDL1-Fc chimeric protein (cynomolgus monkey, UniProt G7PSE7 19-239).
T2 construct: PDL1-Fc chimeric protein from different species captured on the chip
The experiment in a line: SPR. The essentials:
as §1

Another assay has as its target human PDL1 on cells (human, UniProt Q9NZQ7 19-290). Kind of assay: cell-based or functional assay.
In assay [2] the target is T3, biotinylated human PDL1 (human, UniProt Q9NZQ7 19-238, limits assumed, biotinylated).
T3 construct: also called biotinylated PDL1
The experiment in a line: competition ELISA B7.1/PDL1. The essentials:
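Test mixtures containing biotinylated human PDL1 were pre-incubated 1 h at room temperature, then incubated 1.5 h on the plate under agitation. Bound PDL1 detected with 10 ng/ml streptavidin-polyHRP40 and TMB, stopped at 6 min with HCl, read at 450 nm minus 690 nm. IC₅₀ from 4PL fit.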

Assay [3] deals with T3, biotinylated human PDL1. The experiment in a line: competition ELISA PD-1/PDL1.
For assay [4], the target named is cynomolgus CD137-Fc chimeric protein (cynomolgus monkey, UniProt A9YYE7 24-186). Kind of assay: SPR. The essentials:
as §1

A further assay addresses T4, Fc tagged human CD137 (human, UniProt Q07011 24-186).
T4 construct: also called CD137-Fc chimeric protein
The experiment in a line: SPR. The essentials: as §1

The target in assay [5] is T5, CD137 on Jurkat NFkB reporter cells (human, UniProt Q07011 24-255). Kind of assay: cell-based or functional assay.
In assay [6] the target is T5, CD137 on Jurkat NFkB reporter cells. The experiment in a line: cell-based or functional assay. This is another data set of the same source.
Another assay deals with T6, human serum albumin (human, UniProt P02768 25-609).
T6 construct: Coupled directly to the CM5 chip; also called HSA; human SA
Kind of assay: SPR, SA coupled to chip, pH 5.5. As to the method: Affinity of molecules to serum albumin (SA) of the different species was determined by SPR measurements using a Biacore T200 device (GE Healthcare). SA was directly coupled to a CM5 sensor chip (GE Healthcare) using amine coupling chemistry. […] The assay was run in a 1× PBS-Tween buffer at pH 5.5.

B1: PRO1013 (scFv)
scFv: DIQMTQSPSSLSASVGDRVTITCQASQSIGTYLAWYQQKPGKAPKLLIYRAFILASGVPSRFSGSGSGTDFTLTISSLQPEDFATYYCQSNFYSDSTTIGPNAFGTGTKVTVLGGGGGSGGGGSGGGGSGGGGSQVQLVQSGAEVKKPGASVKVSCKASGFSFNSDYWIYWVRQAPGQGLEWMGSIYGGSSGNTQYASWAQGRVTMTRDTSISTAYMELSSLRSEDTAVYYCARGYVDYGGATDLWGQGTLVTVSS
notes: anti-PDL1 scFv; also called 37-20-B03 sc02 scFv; 37-20-B03 CDR, VH1
By Kd is commonly meant the concentration at which binding is half-saturated. In general, koff refers to the first-order rate constant of dissociation. The term kon denotes a measure of how fast the partners come together. By IC50 is commonly meant the point on the concentration scale where inhibition reaches its midpoint. Higher therefore signals lower potency. As to B1, in the assay with Fc tagged human PDL1, the Kd was determined as 45 pM, the koff came to 0.00027 s⁻¹ and the kon came out at 6e+06 M⁻¹ s⁻¹. Also, in assay [1], the koff stood at 0.00032 s⁻¹ and the kon was determined as 5.9e+06 M⁻¹ s⁻¹. In the assay with human PDL1 on cells, the “IC50 (ng/ml), NF-AT potency assay” value stood at 21.3 ng/mL and the “rel. IC50 (avelumab/test)” value worked out at 1.6 fold. Also, in the assay with biotinylated human PDL1 [2], the IC50 amounted to 4.05 ng/mL and the “rel. IC50 (IC50 avelumab/IC50 test)” value was determined as 3.68 fold. Further, in the assay with biotinylated human PDL1 [3], the IC50 turned out to be 0.57 ng/mL and the “rel. IC50 (IC50 avelumab/IC50 test)” value was 3.67 fold.

B2: PRO830 (scFv)
scFv: DIQMTQSPSSLSASVGDRVTITCQASQSINDYLAWYQQKPGKAPKLLIYKASTLASGVPSRFSGSGSGTDFTLTISSLQPEDFATYYCQQGYIITDIDNVFGTGTKVTVLGGGGGSGGGGSGGGGSGGGGSQVQLQESGPGLVKPSETLSLTCKVSGFSFSSGYDMCWIRQPPGKGLEWIGCVVAGSVDITYYASWAKGRVTISVDSSKNQFSLKLSSVTAADTAVYYCARKDAYSDAFNLWGQGTLVTVSS
notes: anti-PDL1 scFv; also called 33-03-G02 sc01 scFv; 33-03-G02 CDR
Take B2: in the assay with Fc tagged human PDL1, the koff worked out at 0.00016 s⁻¹ and the kon was determined as 2.1e+06 M⁻¹ s⁻¹. In [1], the koff amounted to 0.0002 s⁻¹ and the kon was found to be 2.2e+06 M⁻¹ s⁻¹. Further, in the assay with human PDL1 on cells, the “IC50 (ng/ml), NF-AT potency assay” value was found to be 42.9 ng/mL and the “rel. IC50 (avelumab/test)” value came to 0.73 fold. Also, in the assay with biotinylated human PDL1 [2], the IC50 worked out at 12.9 ng/mL and the “rel. IC50 (IC50 avelumab/IC50 test)” value stood at 1.16 fold. Besides, in the assay with biotinylated human PDL1 [3], the IC50 was 3.4 ng/mL and the “rel. IC50 (IC50 avelumab/IC50 test)” value stood at 0.61 fold.

B3: PRO997 (scFv)
scFv: DIQMTQSPSSLSASVGDRVTITCQASQSIGTYLAWYQQKPGKAPKLLIYRAFILASGVPSRFSGSGSGTDFTLTISSLQPEDFATYYCQSNFYSDSTTIGPNAFGTGTKVTVLGGGGGSGGGGSGGGGSGGGGSQVQLQESGPGLVKPSETLSLTCKVSGFSFNSDYWIYWIRQPPGKGLEWIGSIYGGSSGNTQYASWAQGRVTISVDSSKNQFSLKLSSVTAADTAVYYCARGYVDYGGATDLWGQGTLVTVSS
notes: also called 37-20-B03 sc01 scFv; 37-20-B03 CDR
For the molecule B3, in the assay with Fc tagged human PDL1, the Kd is at most 1.7 pM, the “fold higher affinity against the STR graft of clone 33-03-G02” value is about 2 fold, the koff is under 2e-05 s⁻¹ and the kon turned out to be 5.9e+06 M⁻¹ s⁻¹. Further, in assay [1], the koff is under 1e-05 s⁻¹ and the kon worked out at 6e+06 M⁻¹ s⁻¹. Moreover, in the assay with human PDL1 on cells, the “IC50 (ng/ml), NF-AT potency assay” value turned out to be 11.1 ng/mL and the “rel. IC50 (avelumab/test)” value was 3.07 fold. In the assay with biotinylated human PDL1 [2], the IC50 is 6.36 ng/mL and the “rel. IC50 (IC50 avelumab/IC50 test)” value came out at 2.34 fold. Further, in the assay with biotinylated human PDL1 [3], the IC50 stood at 0.5 ng/mL and the “rel. IC50 (IC50 avelumab/IC50 test)” value was determined as 4.16 fold.

B4: PRO1480 (other)
chain: DIQMTQSPASLSASVGDRVTITCQASQSIGTYLAWYQQKPGKPPKLLIYRAFILASGVPSRFSGSGSGTDFTLTISSLQPEDFATYYCQSNFYSDSTTIGPNAFGTGTKVTVLGGGGGSEVQLVESGGGLVQPGGSLRLSCAASGFSFSANYYPCWVRQAPGKGLEWIGCIYGGSSDITYDANWTKGRFTISRDNSKNTVYLQMNSLRAEDTAVYYCARSAWYSGWGGDLWGQGTLVTVSSGGGGSGGGGSGGGGSGGGGSIQMTQSPSSLSASVGDRVTITCQASQSISNRLAWYQQKPGKAPKLLIYSASTLASGVPSRFSGSGSGTDFTLTISSLQPEDFATYYCQSTYYGNDGNAFGTGTKVTVLGGGGGSEVQLVESGGGLVQPGGSLRLSCAASGFSFNSDYWIYWVRQAPGKGLEWIASIYGGSSGNTQYASWAQGRFTISRDNSKNTVYLQMNSLRAEDTAVYFCARGYVDYGGATDLWGQGTLVTVSSGGGGSGGGGSIQMTQSPSSLSASVGDRVTITCQSSESVYSNNQLSWYQQKPGQPPKLLIYDASDLASGVPSRFSGSGSGTDFTLTISSLQPEDFATYYCAGGFSSSSDTAFGGGTKLTVLGGGGGSGGGGSGGGGSGGGGSEVQLVESGGGLVQPGGSLRLSCAASGFSLSSNAMGWVRQAPGKGLEYIGIISVGGFTYYASWAKGRFTISRDNSKNTVYLQMNSLRAEDTATYFCARDRHGGDSSGAFYLWGQGTLVTVSS
notes: trispecific scDb-scFv; also called 38-27-A11 sc02 scDb-i/37-20-B03 sc09.1 scDb-o/19-01-H04 sc03 scFv
For B4, in the assay with Fc tagged human PDL1, the kon is 3.5e+06 M⁻¹ s⁻¹. In [4], the Kd was determined as 470 pM, the koff came to 0.0003 s⁻¹ and the kon turned out to be 640000 M⁻¹ s⁻¹. In addition, in assay [1], the Kd is 8.5 pM, the koff was found to be 3.4e-05 s⁻¹ and the kon was found to be 4e+06 M⁻¹ s⁻¹. In the assay with Fc tagged human CD137, this molecule yielded a Kd of 370 pM, a koff of 0.00022 s⁻¹ and a kon of 580000 M⁻¹ s⁻¹. In addition, in the assay with human PDL1 on cells, the “IC50 (ng/ml), NF-AT potency assay, +HSA” value was found to be 84.8 ng/mL and the “rel. IC50 (avelumab/test), +HSA” value was determined as 0.61 fold. For the same molecule, in assay [5], the “IC50 (ng/ml) (EC50 in Table 16C), NFkB reporter, HCC827 + IFNg, 24 h, +HSA” value was determined as 4.67 ng/mL and the “rel. IC50 (PRO1186/test), 24 h” value was found to be 1 fold. For the same molecule, in [6], the “Area under the curve (calculated using PRO885 normalized data), first line (6 h by the order of the upper part)” value is 232; the “Area under the curve (calculated using PRO885 normalized data), second line (24 h by the order of the upper part)” value is 261; the “EC50 [ng/ml], NF-kB reporter, HCC827 + IFNg, +HSA, 6 h” value came to 6.44 ng/mL; the “IC10/EC90 ratio, first line (6 h by the order of the upper part)” value is 43. Besides, in assay [6], the “IC10/EC90 ratio, second line (24 h by the order of the upper part)” value was determined as 360; the “Maximum NF-kB activation (rel. to PRO1186) [%], first line (6 h by the order of the upper part)” value is 114%; the “Maximum NF-kB activation (rel. to PRO1186) [%], second line (24 h by the order of the upper part)” value turned out to be 121%; the “rel. Area under the curve (AUCsample/AUCPRO1186), first line (6 h by the order of the upper part)” value stood at 1.2 fold. Moreover, in assay [6], the “rel. Area under the curve (AUCsample/AUCPRO1186), second line (24 h by the order of the upper part)” value came out at 1.29 fold; the “rel. EC50 (EC50, PRO1186/EC50, sample), NF-kB reporter, 6 h” value is 1.93 fold; the “rel. EC50 (EC50, PRO1186/EC50, sample), NF-kB reporter, 24 h” value was found to be 1 fold; the “rel. IC10/EC90 (ratio of sample/ratio of PRO1186), first line (6 h by the order of the upper part)” value amounted to 0.54 fold. In [6], the “rel. IC10/EC90 (ratio of sample/ratio of PRO1186), second line (24 h by the order of the upper part)” value was 1.86 fold. In the assay with biotinylated human PDL1 [2], the IC50 was determined as 11.2 ng/mL and the “rel. IC50 (IC50 avelumab/IC50 test)” value was found to be 1.32 fold. Besides, in the assay with biotinylated human PDL1 [3], the IC50 is 2.27 ng/mL and the “rel. IC50 (IC50 avelumab/IC50 test)” value was 1 fold. The molecule also returned a kon with human serum albumin of 327000 M⁻¹ s⁻¹.

These data come from patent US20230192897A1 (NUMAB THERAPEUTICS, published 2023).
